# Source: patent US20250257107
# Biological target: fusion of human collagen type I, alpha 1 solubility-enhancing sequence (HsCol1a1-27), TEV cleavage site ENLYFQG and human keratin type 31 polypeptide fragment (K31)
protein,measurement,value
AcTEV protease (protein) GESLFKGPRDYNPISSTICHLTNESDGHTTSLYGIGFGPFIITNKHLFRRNNGTLLVQSLHGVFKVKNTTTLQQHLIDGRDMIIIRMPKDFPPFPQKLKFREPQREERICLVTTNFQTKSMSSMVSDTSCTFPSSDGIFWKHWIQTKDGQCGSPLVSTRDGFIVGIHSASNFTNTNNYFTSVPKNFMELLTNQEAQQWVSGWRLNADSVLWGGHKVFMSKPEEPFQPVKEATQLMNELVYSQ,"cleavage of the fusion protein, SDS-PAGE with Coomassie Blue",confirm that the cleavage was successful
